In article PMC10352297, “Determining the structure of the bacterial voltage-gated sodium channel NaChBac embedded in liposomes by cryo electron tomography and subtomogram averaging” (Scientific Reports, 2023):

Molecular target: the molecule itself
Experiment: cryo-EM structure; cryo electron tomography and subtomogram averaging of NaChBac in proteoliposomes (E. coli polar lipid extract, lipid-to-protein 2:1 wt/wt); polarized membrane, [K+]in 150 mM, [K+]out 3 mM, 1 uM valinomycin, -100 mV; 25 mM HEPES pH 7.0; 3116 particles, C1, 16.3 A

B1: His6-GFP^A206K-NaChBac (natural protein, Bacillus halodurans, UniProt Q9KCR8 1-274, looked up)
chain: MKMEARQKQNSFTSKMQKIVNHRAFTFTVIALILFNALIVGIETYPRIYADHKWLFYRIDLVLLWIFTIEIAMRFLASNPKSAFFRSSWNWFDFLIVAAGHIFAGAQFVTVLRILRVLRVLRAISVVPSLRRLVDALVMTIPALGNILILMSIFFYIFAVIGTMLFQHVSPEYFGNLQLSLLTLFQVVTLESWASGVMRPIFAEVPWSWLYFVSFVLIGTFIIFNLFIGVIVNNVEKAELTDNEEDGEADGLKQEISALRKDVAELKSLLKQSK
notes: NaChBac, prokaryotic voltage-gated sodium channel from Bacillus halodurans; cDNA for full-length NaChBac in pET21a; the tagged subunit is 55 kDa; the channel without tags is about 120 kDa as a tetramer; also called his-GFP-NaChBac; his-tagged GFP^A206K-NaChBac; source: E. coli C41(DE3), purified (Ni-NTA, SEC in DDM), reconstituted into liposomes of E. coli polar lipid extract; not shown: His6, …
stoichiometry N: 4
